Consider three molecules from paper PMC4532856 (Nature Communications, 2015).

Assay [1] deals with T1, full-length glucagon receptor purified from Sf9 membranes (Homo sapiens, UniProt P47871).
T1 construct: glucagon receptor (GCGR), full-length construct; the small molecule NNC0640 was present throughout; also called full-length GCGR; GCGR; source: Sf9 membranes, solubilised in DDM/CHS, purified (talon resin), exchanged into lauryl maltose neopentyl glycol
Kind of assay: negative-stain EM (random conical tilt 3D maps); purified GCGR in lauryl maltose neopentyl glycol mixed with mAb23 Fab, complex isolated by size exclusion chromatography, stained with 2% uranyl formate. The note with it: both partners purified. For orientation: SEC sorts molecules by how far they enter the pores of the column.

In assay [2] the target is T2, full-length glucagon receptor (GCGR), purified from Sf9 membranes for EM (Homo sapiens, UniProt P47871).
T2 construct: glucagon receptor (GCGR), human, called the full-length construct; also called full-length GCGR; full-length construct
T2 sequence (P47871 26-477): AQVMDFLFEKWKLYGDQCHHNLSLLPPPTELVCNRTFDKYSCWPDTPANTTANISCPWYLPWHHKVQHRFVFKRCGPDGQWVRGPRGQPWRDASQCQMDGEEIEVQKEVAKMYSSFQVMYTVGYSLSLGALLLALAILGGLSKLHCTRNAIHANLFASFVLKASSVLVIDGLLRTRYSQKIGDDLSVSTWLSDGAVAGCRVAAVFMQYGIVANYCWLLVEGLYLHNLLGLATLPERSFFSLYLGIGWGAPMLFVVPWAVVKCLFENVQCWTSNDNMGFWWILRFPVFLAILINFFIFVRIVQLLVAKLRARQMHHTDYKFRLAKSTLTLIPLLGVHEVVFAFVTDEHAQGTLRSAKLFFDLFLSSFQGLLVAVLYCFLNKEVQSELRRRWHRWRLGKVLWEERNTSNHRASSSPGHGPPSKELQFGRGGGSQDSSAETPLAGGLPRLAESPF
Briefly: negative-stain electron microscopy map (random conical tilt); mAb23 Fab mixed with detergent-purified GCGR (lauryl maltose neopentyl glycol, NNC0640), complex isolated by size exclusion chromatography; 2% uranyl formate stain; about 0.01 uM protein. The following applies: both partners purified.

Assay [3] deals with GCGR. The following applies: cited from earlier work.

T1 sequence (P47871 26-477): as above

B1: antigen-binding fragment (Fab) of the monoclonal antibody mAb23 (Fab, V domains shown)
VH: EVQLVESGGGLVQPGGSLRLSCAASGFNIYYNYIHWVRQAPGKGLEWVAEFSPYSGSTYYADSVKGRFTISADTSKNTAYLQMNSLRAEDTAVYYCARSAAIVDWYDYFKGFDYWGQGTLVTVSS
VL: DIQMTQSPSSLSASVGDRVTITCRASQSVSSAVAWYQQKPGKAPKLLIYSASSLYSGVPSRFSGSRSGTDFTLTISSLQPEDFATYYCQQYGSYLYTFGQGTKVEIK
notes: The alignment numbers light chain 1-215 and heavy chain 216-443 in one run; also called mAb23 Fab; source: kindly provided by Genentech
Take B1: the binding result in assay [1] was “binds”.

B2: antigen-binding fragment (Fab) of the monoclonal antibody mAb23 (Fab, V domains shown)
VH: B1 VH
VL: B1 VL
notes: Related to mAb1, whose Fab is in PDB 4ERS (cited); also called mAb23 Fab; source: kindly provided by Genentech
B2: the binding result in assay [2] is reported as “binds”.

B3: mAb23: monoclonal antibody that interacts with the ECD of GCGR; Fab kindly provided by Genentech (antibody, V domains shown)
VH: B1 VH
VL: B1 VL
Consider B3, for which the “effect on glucagon binding to the receptor” value in assay [3] was “preventing glucagon from binding to the receptor”.
